Substrate in this series: NC(=O)c1ccc[n+]([C@@H]2O[C@H](COP(=O)(O)OP(=O)(O)OC[C@H]3O[C@@H](n4cnc5c(N)ncnc54)[C@@H]4OP(=O)(O)O[C@@H]43)[C@@H](O)[C@H]2O)c1
Nature of the series: purified protein. To be noted: 100 mM MES pH 6.0, 3 mM MgCl2, 5 mM glucose-6-phosphate, 25 °C, CPDase site.

B1: ScTrl1 PNK/CPDase (Saccharomyces cerevisiae S288C) (protein)
chain: RTKFLIFPISVIGCGKTTTSQTLVNLFPDSWGHIQNDDITGKDKSQLMKKSLELLSKKEIKCVIVDRNNHQFRERKQLFEWLNELKEDYLVYDTNIKVIGVSFAPYDKLSEIRDITLQRVIKRGNNHQSIKWDELGEKKVVGIMNGFLKRYQPVNLDKSPDNMFDLMIELDFGQADSSLTNAKQILNEIHKAYPILVPEIPKDDEIETAFRRSLDYKPTVRKIVGKGNNNQQKTPKLIKPTYISAKIENYDEIIELVKRCIASDAELTEKFKHLLASGKVQKELHITLGHVMSSREKEAKKLWKSYCNRYTDQITEYNNNRIENAQGSGNNQNTQVKTTDKLNFRLEKLCWDEKIIAIVVELSKDKDGCIIDENNEKIKGLCCQNKIPHITLCKLESGVKAVYSNVLCEKVESAEVDENIKVVKLDNSKEFVGSVYLNF
In general, Km refers to the substrate concentration at which the rate is half of its maximum. By kcat is commonly meant the number of substrate molecules converted per active site and unit of time at saturation. In general, kcat/Km refers to the turnover number divided by the Michaelis constant. As for B1, the Michaelis-Menten constant (Km) is 420 ± 35 µM, the kcat was determined as 317 s⁻¹ and the kcat/Km turned out to be 750000 M⁻¹ s⁻¹.

B2: ScTrl1 CPDase (Saccharomyces cerevisiae S288C) (protein)
chain: GQADSSLTNAKQILNEIHKAYPILVPEIPKDDEIETAFRRSLDYKPTVRKIVGKGNNNQQKTPKLIKPTYISAKIENYDEIIELVKRCIASDAELTEKFKHLLASGKVQKELHITLGHVMSSREKEAKKLWKSYCNRYTDQITEYNNNRIENAQGSGNNQNTQVKTTDKLNFRLEKLCWDEKIIAIVVELSKDKDGCIIDENNEKIKGLCCQNKIPHITLCKLESGVKAVYSNVLCEKVESAEVDENIKVVKLDNSKEFVGSVYLNF
As to B2, the Michaelis constant (Km) amounted to 237 ± 27 µM, the kcat came to 275 s⁻¹ and the kcat/Km amounted to 1.16e+06 M⁻¹ s⁻¹.

The values are drawn from paper PMC5434554, “Structural similarities and functional differences clarify evolutionary relationships between tRNA healing enzymes and the myelin enzyme CNPase” (BMC Biochemistry, 2017).
